The values below come from US20140093496A1 (Chugai, published 2014).

What is called Kd is the concentration at which binding is half-saturated. A higher Kd goes with a looser complex.

Assay [1] has as its target T1, FcγRIa extracellular domain with C-terminal His tag (human, UniProt P12314 16-292).
T1 construct: also called FcgRIa
In words: SPR (Biacore). The text has this:
(§1) IL6R-L was utilized as the common antibody L chain for all of the antibodies, the antibodies were expressed and purified according to the method of Reference Example 1, and binding to each of the FcγRs (FcγRIa, FcγRIIa H type, FcγRIIa R type, FcγRIIb, and FcγRIIIa V type) was comprehensively evaluated by the method of Reference Example 2.
(§2) Furthermore, KD(IIaR)/KD(IIb) and KD(IIaH)/KD(IIb) in the table respectively represent the value obtained by dividing the KD value of each variant for FcγRIIaR by the KD value of each variant for FcγRIIb, and the value obtained by dividing the KD value of each variant for FcγRIIaH by the KD value of each variant for FcγRIIb. KD(IIb) of the parent polypeptide/KD(IIb) of the altered polypeptide refers to the value obtained by dividing the KD value of the parent polypeptide for FcγRIIb by the KD value of each variant for FcγRIIb.
(In general: In SPR one partner is held on a chip, and binding of the other changes the refractive index at the surface.)

Assay [2] addresses T2, FcγRIIa type R extracellular domain with C-terminal His tag (human, UniProt P12318 34-217).
T2 construct: extracellular domain; also called FcgRIIaR; FcγRIIaR
T2 sequence (looked up): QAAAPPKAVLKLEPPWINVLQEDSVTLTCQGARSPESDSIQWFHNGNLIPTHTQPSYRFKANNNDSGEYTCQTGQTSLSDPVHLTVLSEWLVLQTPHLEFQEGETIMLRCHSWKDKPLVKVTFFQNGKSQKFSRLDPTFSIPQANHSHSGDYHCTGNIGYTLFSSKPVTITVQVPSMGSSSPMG
In words: SPR (Biacore).
Description: as §1, §2

The target of assay [3] is T3, FcγRIIIa type V extracellular domain, C-terminal His tag (human, UniProt P08637 17-208).
T3 construct: extracellular domain; also called FcgRIIIaV; FcγRIIIaV; not shown: His tag at the C terminus
In words: SPR (Biacore), antibody captured on chip, FcγR extracellular domain as analyte; 1:1 kinetic fit or Equation 2 for weak binding.
Description: as §1, §2

T3 sequence (P08637 17-208 F176V): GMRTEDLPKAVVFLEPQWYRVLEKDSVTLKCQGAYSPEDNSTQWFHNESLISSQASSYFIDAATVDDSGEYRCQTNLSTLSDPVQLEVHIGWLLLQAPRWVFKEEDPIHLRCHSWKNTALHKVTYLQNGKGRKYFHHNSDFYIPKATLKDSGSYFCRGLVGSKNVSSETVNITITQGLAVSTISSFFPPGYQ
T1 sequence (P12314 16-292): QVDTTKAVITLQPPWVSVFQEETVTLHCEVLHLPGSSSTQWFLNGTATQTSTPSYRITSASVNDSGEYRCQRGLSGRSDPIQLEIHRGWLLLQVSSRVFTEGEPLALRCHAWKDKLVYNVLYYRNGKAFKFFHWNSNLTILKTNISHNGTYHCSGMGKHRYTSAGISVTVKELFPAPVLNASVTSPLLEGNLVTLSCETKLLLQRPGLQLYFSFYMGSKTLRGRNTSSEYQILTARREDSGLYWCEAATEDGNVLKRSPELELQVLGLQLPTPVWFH

B1: IL6R-BP192/IL6R-L (antibody, human IgG1, kappa)
heavy: QVQLQESGPGLVKPSETLSLTCAVSGHSISHDHAWSWVRQPPGEGLEWIGFISYSGITNYNPSLQGRVTISRDNSKNTLYLQMNSLRAEDTAVYYCARSLARTTAMDYWGEGTLVTVSSASTKGPSVFPLAPSSKSTSGGTAALGCLVKDYFPEPVTVSWNSGALTSGVHTFPAVLQSSGLYSLSSVVTVPSSSLGTQTYICNVNHKPSNTKVDKKVEPKSCDKTHTCPPCPAPDLLGGDSVFLFPPKPKDTLMISRTPEVTCVVVDVSDEDGEVKFNWYVDGVEVHNAKTKPREEQDNSTYRVVSVLTVLHQDWLNGKEYKCKVSNKALPKPIEKTISKAKGQPREPQVYTLPPSRDELTKNQVSLTCLVKGFYPSDIAVEWESNGQPENNYKTTPPVLDSDGSFFLYSKLTVDKSRWQQGNVFSCSVMHEALHNHYTQESLSLSP
light: not shown
notes: E233D/P238D/H268D/P271G/Y296D/A330K (EU) in IL6R-B3; copies: 2 + 2
Turning to B1, the Kd was 0.0066 µM in assay [1] and 2.6 µM in assay [2].

B2: IL6R-BP213/IL6R-L (antibody, human IgG1, kappa)
heavy: QVQLQESGPGLVKPSETLSLTCAVSGHSISHDHAWSWVRQPPGEGLEWIGFISYSGITNYNPSLQGRVTISRDNSKNTLYLQMNSLRAEDTAVYYCARSLARTTAMDYWGEGTLVTVSSASTKGPSVFPLAPSSKSTSGGTAALGCLVKDYFPEPVTVSWNSGALTSGVHTFPAVLQSSGLYSLSSVVTVPSSSLGTQTYICNVNHKPSNTKVDKKVEPKSCDKTHTCPPCPAPDLLGGDSVFLFPPKPKDTLMISRTPEVTCVVVDVSDEDGEVKFNWYVDGVEVHNAKTKPREEQYNSTYRVVSVLTVLHQDWLNGKEYKCKVSNKALPRPIEKTISKAKGQPREPQVYTLPPSRDELTKNQVSLTCLVKGFYPSDIAVEWESNGQPENNYKTTPPVLDSDGSFFLYSKLTVDKSRWQQGNVFSCSVMHEALHNHYTQESLSLSP
light: not shown
notes: Anti-human IL-6 receptor IgG1
Molecule B2 registered a dissociation constant (Kd) in assay [3] of 63 µM.

B3: IL6R-BP198/IL6R-L (antibody, human IgG1, kappa)
heavy: QVQLQESGPGLVKPSETLSLTCAVSGHSISHDHAWSWVRQPPGEGLEWIGFISYSGITNYNPSLQGRVTISRDNSKNTLYLQMNSLRAEDTAVYYCARSLARTTAMDYWGEGTLVTVSSASTKGPSVFPLAPSSKSTSGGTAALGCLVKDYFPEPVTVSWNSGALTSGVHTFPAVLQSSGLYSLSSVVTVPSSSLGTQTYICNVNHKPSNTKVDKKVEPKSCDKTHTCPPCPAPDYLGGDSVFLFPPKPKDTLMISRTPEVTCVVVDVSDEDGEVKFNWYVDGVEVHNAKTKPREEQYNSTYRVVSVLTVLHQDWLNGKEYKCKVSNAALPKPIEKTISKAKGQPREPQVYTLPPSRDELTKNQVSLTCLVKGFYPSDIAVEWESNGQPENNYKTTPPVLDSDGSFFLYSKLTVDKSRWQQGNVFSCSVMHEALHNHYTQESLSLSP
light: not shown
notes: Anti-human IL-6 receptor IgG1
B3 registered a Kd in assay [3] of 44 µM.

B4: IL6R-BP203/IL6R-L (antibody, human IgG1, kappa)
heavy: QVQLQESGPGLVKPSETLSLTCAVSGHSISHDHAWSWVRQPPGEGLEWIGFISYSGITNYNPSLQGRVTISRDNSKNTLYLQMNSLRAEDTAVYYCARSLARTTAMDYWGEGTLVTVSSASTKGPSVFPLAPSSKSTSGGTAALGCLVKDYFPEPVTVSWNSGALTSGVHTFPAVLQSSGLYSLSSVVTVPSSSLGTQTYICNVNHKPSNTKVDKKVEPKSCDKTHTCPPCPAPELLGDDSVFLFPPKPKDTLMISRTPEVTCVVVDVSHEDGEVKFNWYVDGVEVHNAKTKPREEQYNSTYRVVSVLTVLHQDWLNGKEYKCKVSNKALPRPIEKTISKAKGQPREPQVYTLPPSRDELTKNQVSLTCLVKGFYPSDIAVEWESNGQPENNYKTTPPVLDSDGSFFLYSKLTVDKSRWQQGNVFSCSVMHEALHNHYTQESLSLSP
light: not shown
notes: Anti-human IL-6 receptor IgG1
Regarding B4, the Kd in assay [3] was 72 µM.

B5: IL6R-BP197/IL6R-L (antibody, human IgG1, kappa)
heavy: QVQLQESGPGLVKPSETLSLTCAVSGHSISHDHAWSWVRQPPGEGLEWIGFISYSGITNYNPSLQGRVTISRDNSKNTLYLQMNSLRAEDTAVYYCARSLARTTAMDYWGEGTLVTVSSASTKGPSVFPLAPSSKSTSGGTAALGCLVKDYFPEPVTVSWNSGALTSGVHTFPAVLQSSGLYSLSSVVTVPSSSLGTQTYICNVNHKPSNTKVDKKVEPKSCDKTHTCPPCPAPDYLGDDSVFLFPPKPKDTLMISRTPEVTCVVVDVSDEDGEVKFNWYVDGVEVHNAKTKPREEQDNSTYRVVSVLTVLHQDWLNGKEYKCKVSNDALPKPIEKTISKAKGQPREPQVYTLPPSRDELTKNQVSLTCLVKGFYPSDIAVEWESNGQPENNYKTTPPVLDSDGSFFLYSKLTVDKSRWQQGNVFSCSVMHEALHNHYTQESLSLSP
light: not shown
notes: Anti-human IL-6 receptor IgG1
Take B5: the Kd in assay [3] worked out at 33 µM.

B6: IL6R-BP195/IL6R-L (antibody, human IgG1, kappa)
heavy: QVQLQESGPGLVKPSETLSLTCAVSGHSISHDHAWSWVRQPPGEGLEWIGFISYSGITNYNPSLQGRVTISRDNSKNTLYLQMNSLRAEDTAVYYCARSLARTTAMDYWGEGTLVTVSSASTKGPSVFPLAPSSKSTSGGTAALGCLVKDYFPEPVTVSWNSGALTSGVHTFPAVLQSSGLYSLSSVVTVPSSSLGTQTYICNVNHKPSNTKVDKKVEPKSCDKTHTCPPCPAPDYLGDDSVFLFPPKPKDTLMISRTPEVTCVVVDVSDEDGEVKFNWYVDGVEVHNAKTKPREEQDNSTYRVVSVLTVLHQDWLNGKEYKCKVSNAALPKPIEKTISKAKGQPREPQVYTLPPSRDELTKNQVSLTCLVKGFYPSDIAVEWESNGQPENNYKTTPPVLDSDGSFFLYSKLTVDKSRWQQGNVFSCSVMHEALHNHYTQESLSLSP
light: not shown
notes: Anti-human IL-6 receptor IgG1
The molecule B6 returned a Kd in assay [3] of 31 µM.

B7: IL6R-BP206/IL6R-L (antibody, human IgG1, kappa)
heavy: QVQLQESGPGLVKPSETLSLTCAVSGHSISHDHAWSWVRQPPGEGLEWIGFISYSGITNYNPSLQGRVTISRDNSKNTLYLQMNSLRAEDTAVYYCARSLARTTAMDYWGEGTLVTVSSASTKGPSVFPLAPSSKSTSGGTAALGCLVKDYFPEPVTVSWNSGALTSGVHTFPAVLQSSGLYSLSSVVTVPSSSLGTQTYICNVNHKPSNTKVDKKVEPKSCDKTHTCPPCPAPDLLGGDSVFLFPPKPKDTLMISRTPEVTCVVVDVSHEDGEVKFNWYVDGVEVHNAKTKPREEQYNSTYRVVSVLTVLHQDWLNGKEYKCKVSNKALPRPIEKTISKAKGQPREPQVYTLPPSRDELTKNQVSLTCLVKGFYPSDIAVEWESNGQPENNYKTTPPVLDSDGSFFLYSKLTVDKSRWQQGNVFSCSVMHEALHNHYTQESLSLSP
light: not shown
notes: Anti-human IL-6 receptor IgG1
Consider B7, for which the Kd in assay [3] came to 69 µM.

B8: IL6R-BP203/IL6R-L (antibody, human IgG1, kappa)
heavy: QVQLQESGPGLVKPSETLSLTCAVSGHSISHDHAWSWVRQPPGEGLEWIGFISYSGITNYNPSLQGRVTISRDNSKNTLYLQMNSLRAEDTAVYYCARSLARTTAMDYWGEGTLVTVSSASTKGPSVFPLAPSSKSTSGGTAALGCLVKDYFPEPVTVSWNSGALTSGVHTFPAVLQSSGLYSLSSVVTVPSSSLGTQTYICNVNHKPSNTKVDKKVEPKSCDKTHTCPPCPAPELLGDDSVFLFPPKPKDTLMISRTPEVTCVVVDVSHEDGEVKFNWYVDGVEVHNAKTKPREEQYNSTYRVVSVLTVLHQDWLNGKEYKCKVSNKALPRPIEKTISKAKGQPREPQVYTLPPSRDELTKNQVSLTCLVKGFYPSDIAVEWESNGQPENNYKTTPPVLDSDGSFFLYSKLTVDKSRWQQGNVFSCSVMHEALHNHYTQESLSLSP
light: not shown
notes: G237D/P238D/P271G/A330R (EU) in IL6R-B3; copies: 2 + 2
In the case of B8, the Kd in assay [1] stood at 0.18 µM; in assay [2], 0.99 µM.

B9: IL6R-BP196/IL6R-L (antibody, human IgG1, kappa)
heavy: QVQLQESGPGLVKPSETLSLTCAVSGHSISHDHAWSWVRQPPGEGLEWIGFISYSGITNYNPSLQGRVTISRDNSKNTLYLQMNSLRAEDTAVYYCARSLARTTAMDYWGEGTLVTVSSASTKGPSVFPLAPSSKSTSGGTAALGCLVKDYFPEPVTVSWNSGALTSGVHTFPAVLQSSGLYSLSSVVTVPSSSLGTQTYICNVNHKPSNTKVDKKVEPKSCDKTHTCPPCPAPEYLGGDSVFLFPPKPKDTLMISRTPEVTCVVVDVSDEDGEVKFNWYVDGVEVHNAKTKPREEQYNSTYRVVSVLTVLHQDWLNGKEYKCKVSNAALPKPIEKTISKAKGQPREPQVYTLPPSRDELTKNQVSLTCLVKGFYPSDIAVEWESNGQPENNYKTTPPVLDSDGSFFLYSKLTVDKSRWQQGNVFSCSVMHEALHNHYTQESLSLSP
light: not shown
notes: Anti-human IL-6 receptor IgG1
B9 registered a Kd in assay [3] of 51 µM.

B10: IL6R-BP207/IL6R-L (antibody, human IgG1, kappa)
heavy: QVQLQESGPGLVKPSETLSLTCAVSGHSISHDHAWSWVRQPPGEGLEWIGFISYSGITNYNPSLQGRVTISRDNSKNTLYLQMNSLRAEDTAVYYCARSLARTTAMDYWGEGTLVTVSSASTKGPSVFPLAPSSKSTSGGTAALGCLVKDYFPEPVTVSWNSGALTSGVHTFPAVLQSSGLYSLSSVVTVPSSSLGTQTYICNVNHKPSNTKVDKKVEPKSCDKTHTCPPCPAPDLLGGDSVFLFPPKPKDTLMISRTPEVTCVVVDVSHEDPEVKFNWYVDGVEVHNAKTKPREEQYNSTYRVVSVLTVLHQDWLNGKEYKCKVSNKALPRPIEKTISKAKGQPREPQVYTLPPSRDELTKNQVSLTCLVKGFYPSDIAVEWESNGQPENNYKTTPPVLDSDGSFFLYSKLTVDKSRWQQGNVFSCSVMHEALHNHYTQESLSLSP
light: not shown
notes: Anti-human IL-6 receptor IgG1
For B10, the dissociation constant Kd in assay [3] came to 65 µM.

B11: IL6R-BP199/IL6R-L (antibody, human IgG1, kappa)
heavy: QVQLQESGPGLVKPSETLSLTCAVSGHSISHDHAWSWVRQPPGEGLEWIGFISYSGITNYNPSLQGRVTISRDNSKNTLYLQMNSLRAEDTAVYYCARSLARTTAMDYWGEGTLVTVSSASTKGPSVFPLAPSSKSTSGGTAALGCLVKDYFPEPVTVSWNSGALTSGVHTFPAVLQSSGLYSLSSVVTVPSSSLGTQTYICNVNHKPSNTKVDKKVEPKSCDKTHTCPPCPAPDLLGGDSVFLFPPKPKDTLMISRTPEVTCVVVDVSHEDPEVKFNWYVDGVEVHNAKTKPREEQYNSTYRVVSVLTVLHQDWLNGKEYKCKVSNDALPRPIEKTISKAKGQPREPQVYTLPPSRDELTKNQVSLTCLVKGFYPSDIAVEWESNGQPENNYKTTPPVLDSDGSFFLYSKLTVDKSRWQQGNVFSCSVMHEALHNHYTQESLSLSP
light: not shown
notes: Anti-human IL-6 receptor IgG1
Molecule B11 had a Kd in assay [3] of 61 µM.
